The results in this text go back to US20190330277A1.

The target in assay [1] is RB94 sc9 DS-CAV1 N183GC-N428C L373R Long. As to the kind of experiment: ELISA, variant from culture supernatant on Ni-NTA plate.
For assay [2], the target named is 391-2-DS-Cav1-sc9deleteFS 98C-362C. The assay is described as above.
Assay [3] has as its target RB94 sc9 DS-CAV1 N183GC-N428C L373R. The description is as above.
The target of assay [4] is 391-2-DS-Cav1-sc9 99C-362C. The assay is described as above.
Assay [5] concerns the target 391-2-DS-Cav1-sc9 99C-361C. The description is as above.
The target in assay [6] is 391-2-DS-Cav1-sc9 100C-362C. Described as above.
For assay [7], the target named is RB94 sc9 DS-CAV1 N183GC-N428C L373R Long K226L. The description is as above.
Assay [8] deals with 391-2 sc9 DS-Cav1 98C-362C. Described as above.
Assay [9] has as its target 391-2-DS-Cav1_ sc9_I28C-G464C. Described as above.
For assay [10], the target named is 391-2-DS-Cav1-BZGJ9deleteFS. As to the kind of experiment: ELISA, variant from culture supernatant on Ni-NTA plate [continued]. For orientation: An ELISA detects its analyte on a solid surface through an enzyme-linked reagent.

Regarding D25 antibody, the ELISA binding value is 0.26 in [1]; 0.362 in [2]; 0.187 in assay [3]; 0.249 in assay [4]; 0.225 in assay [5]; 0.274 in assay [6]. Also, the ELISA binding value was determined as 0.206 in assay [7], 0.433 in [8], 0.202 in assay [9] and 0.119 in assay [10].
